Reference: publication PMC2140037 (The Journal of Cell Biology, 2007)

How the values were obtained:
[1] = molecular target: GST-Sed5H1 (yeast) (UniProt Q01590); assay: pull-down
[2] = molecular target: GST-Sed5H1 + 2 (yeast) (UniProt Q01590); assay: pull-down
[3] = molecular target: GST-Sed5H2 (yeast) (UniProt Q01590); assay: pull-down
[4] = molecular target: rat Cog3p (rat (endogenous in rat liver Golgi membranes)); assay: co-IP
[5] = molecular target: yeast COG complex (purified from TAP-yCog2 cells) (yeast, UniProt P53079;P53271;P40094;Q06096;P53951;P53959;P53195;Q04632); assay: pull-down

yeast COG complex (purified from TAP-yCog2 cells), P53079;P53271;P40094;Q06096;P53951;P53959;P53195;Q04632
fold less efficient binding than to the cytosolic portion of Sed5p and Sed5H3 [1]: 4 fold | fold less efficient binding than to the cytosolic portion of Sed5p and Sed5H3 [2]: 4 fold | fold less efficient binding than to the cytosolic portion of Sed5p and Sed5H3 [3]: 4 fold

B1: Syntaxin5a (rat liver Golgi) (natural protein)
chain: MSCRDRTQEFLSACKSLQSRQNGIQTNKPALHATRQCSEFTLMARRIGKDLSNTFAKLEKLTILAKRKSLFDDKAVEIEELTYIIKQDINSLNKQIAQLQDFVRAKGSQSGRHLQTHSNTIVVSLQSKLASMSNDFKSVLEVRTENLKQQRNRREQFSRAPVSALPLAPNNLGGGPIVLGGESRASRDVAIDMMDPRTSQQLQLIDEQDSYIQSRADTMQNIESTIVELGSIFQQLAHMVKEQEETIQRIDENVLGAQLDVEAAHSEILKYFQSVTSNRWLMVKIFLILIVFFIIFVVFLA
percent coimmunoprecipitated [4]: < 4%

B2: GS28 (rat liver Golgi) (natural protein)
chain: MAAGTSNYWEDLRKQARQLENELDLKLVSFSKLCTSYSHSSARDGGRDRYSSDTTPLLNGSSQDRMFETMAIEIEQLLARLTGVNDKMAEYTHSAGVPSLNAALMHTLQRHRDILQDYTHEFHKTKANFMAIRERENLMGSVRKDIESYKSGSGVNNRRTELFLKEHDHLRNSDRLIEETISIAMATKENMTSQRGMLKSIHSKMNTLANRFPAVNSLIQRINLRKRRDSLILGGVIGICTILLLLYAFH
percent coimmunoprecipitated [4]: < 4%

B3: GST-Sed5p, cytosolic portion (domain or fragment)
chain: MNIKDRTSEFQQSVLSYKKRNKNFREQQRERLQEKESENFANNTTGNGKSVSEFQKKASGIAHEISSTAQLLSKLAVLAKRKPMFNDNPVEIAELSFLIKRKIYAIEQSLVQLSQLKKTDVNGNTSNQSSKQPSAVQHSKNVVNLLNTQMKNISGSFKDVLEERQRLEMANKDRWQKLTTDTGHAPADDQTQSNHAADLTTYNNSNPFMTSLLDESSEKNNNSSNQGELSFPQNDSQLMLMEEGQLSNNVYLQERNRAVETIESTIQEVGNLFQQLASMVQEQGEVIQRIDANVDDIDLNISGAQRELLKYFDRIKSNR
binding result [5]: binds

B4: vesicle-tethering factor p115 (rat liver Golgi) (natural protein)
chain: MNFLRGVMGGQSAGPQHTEAETIQKLCDRVASSTLLDDRRNAVRALKSLSKKYRLEVGIQAMEHLIHVLQTDRSDSEIIAYALDTLYNIISNDEEEEVEENSTRQSEDLGSQFTEIFIKQPENVTLLLSLLEEFDFHVRWPGVRLLTSLLKQLGPPVQQIILVSPMGVSKLMDLLADSREIIRNDGVLLLQALTRSNGAIQKIVAFENAFERLLDIITEEGNSDGGIVVEDCLILLQNLLKNNNSNQNFFKEGSYIQRMKAWFEVGDENPGWSAQKVTNLHLMLQLVRVLVSPTNPPGATSSCQKAMFQCGLLQQLCTILMATGIPADILTETINTVSEVIRGCQVNQDYFASVNAPSNPPRPAIVVLLMSMVNERQPFVLRCAVLYCFQCFLYKNEKGQGEIVATLLPSTIDATGNSVSAGQLLCGGLFSTDSLSNWCAAVALAHALQGNATQKEQLLRVQLATSIGNPPVSLLQQCTNILSQGSKIQTRVGLLMLLCTWLSNCPIAVTHFLHNSANVPFLTGQIAENLGEEEQLVQGLCALLLGISIYFNDNSLENYTKEKLKQLIEKRIGKENYIEKLGFISKHELYSRASQKPQPNFPSPEYMIFDHEFTKLVKELEGVITKAIYKSSEEDKKEEEVKKTLEQHDNIVTHYKNMIREQDLQLEELKQQVSTLKCQNEQLQTAVTQQASQIQQHKDQYNLLKVQLGKDNHHQGSHSDGAQVNGIQPEEISRLREEIEELRSHQVLLQSQLAEKDTVIENLRSSQVSGMSEQALATCSPRDAEQVAELKQELSALKSQLCSQSLEITRLQTENSELQQRAETLAKSVPVEGESELVTAAKTTDVEGRLSALLQETKELKNEIKALSEERTAIQKQLDSSNSTIAILQTEKDKLYLEVTDSKKEQDDLLVLLADQDQKILSLKSKLKDLGHPVEEEDESGDQEDDDDELDDGDRDQDI
percent coimmunoprecipitated [4]: 4%

B5: GST-Sed5H3 (SNARE domain of Sed5p) (domain or fragment)
chain: FMTSLLDESSEKNNNSSNQGELSFPQNDSQLMLMEEGQLSNNVYLQERNRAVETIESTIQEVGNLFQQLASMVQEQGEVIQRIDANVDDIDLNISGAQRELLKYFDRIKSNRWLAAK
binding result [5]: binds

B6: Golgi matrix protein GM130 (rat liver Golgi) (natural protein)
chain: MWPPRFPPPRPGMSEETRQSKLAAAKKKLREYQQKNSPGVPAGAKKKKKIKNGHSPERTSASDCQSAENVPTDHTAPAPPSTAAATMFLGVVPSPDADLIQSHDAGNCSNLMEETKTFSSTESLRQLSQQLNGLVSESTSYINGEGLTSSNMKELESRYQELAVALDSSYVTNKQLSSTIEELKQQNQDTLDQLEKEKKDYQQKLAKEQGALREQLQVHIQTIGILVSEKAELQTALAHTQQAARQKAGESEDLASRLQSSRQRVGELERTLSTVSTQQKQADRYNKDLTKERDALKLELYKNGKSNEDLRQQNSELEEKLRVLVAEKAAAQLGAEELQKKLEMSELLLQQFSSQSEASGSNEQLQQAMEERAQLESHVGQLMESLKQLQVERDQYAENLKGESAMWQQRVQQMAEQVHALKEEKEQRESQVQELEASLAELRSQMEEPPPPEPPTGPSEAEERLQGEVEQLQKELEGLTGQLRAQVQDNESLSHLNREQEGRLLELEREAQHWSEQAEERKQILESMQSDRTTISRALSQNRELKEQLAELQNGFVRLTNENMEITSALQSEQHVKKELARKLGELQERLGELKETVELKSQEAQGLQEQRDQCLSHLQQYAAAYQQHLTAYEQLTSEKEALHKQLLLQTQLMDQLQHEEVQGKMAAEMARQELQEAQERLKASSQENQQLQAQLSLLVLPGEDMDQEEQDEEVPQPSLTIPEDLVSREAMVAFCNAAIARAEEEQARLRVQLREQKARCRSLAHLAAPVQSKLEKEAVVPRDMGDSVSEESNQALHVAMEKLQNRFLEVMQEKVELKERVEELEHCCIQLSGETDTIGEYIALYQNQRAVLKARHLEKEEYISRLAQDKEEMKVKLLELQELVLRLVNERNEWQGKFLAVSQNPADVPAPVPTGSQEFGAADQQGDLREVSLADDTEPAQGEAGVPAPQENPTAQQIMQLLREIQNPQERPGLGSNPCIPFFYRADENDEVKIMVI
percent coimmunoprecipitated [4]: 10%
